Earlier results as cited in paper PMC4370504.

Target: ubiquitin (Homo sapiens) (UniProt P0CG47)
Assay: ITC

Sequence of Pol eta UBZ (Q9Y253 625-665): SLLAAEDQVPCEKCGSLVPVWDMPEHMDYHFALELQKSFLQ

**Q.** With Pol eta UBZ (from UniProt Q9Y253) as the substance, how does the Kd read?
**A.** 81 µM
